Results published in patent US20140087995A1 (published 2014).
Substitutions are numbered along the chain they refer to. Numbered stars: 1 amine (or outer) side, 2 acyl side, 3 side chain; on linkers, the order of the positions; unused ones are H or OH. Bridge positions count the residues as written; N and C are the ends. Side chains are listed from the residue outwards. Ends that are not written are not given here. * marks the point of attachment. C20 diacid = O=C(O)CCCCCCCCCCCCCCCCCCC(=O)*; γGlu = O=C(O)[C@H](CCC(=O)[*:2])N[*:1]; AEEA = NCCOCCOCC(=O)O

T1: human calcitonin receptor (human, UniProt P30988 25-474)
T1 construct: whole, on cells; also called hCTR; hCT
T1 sequence (looked up): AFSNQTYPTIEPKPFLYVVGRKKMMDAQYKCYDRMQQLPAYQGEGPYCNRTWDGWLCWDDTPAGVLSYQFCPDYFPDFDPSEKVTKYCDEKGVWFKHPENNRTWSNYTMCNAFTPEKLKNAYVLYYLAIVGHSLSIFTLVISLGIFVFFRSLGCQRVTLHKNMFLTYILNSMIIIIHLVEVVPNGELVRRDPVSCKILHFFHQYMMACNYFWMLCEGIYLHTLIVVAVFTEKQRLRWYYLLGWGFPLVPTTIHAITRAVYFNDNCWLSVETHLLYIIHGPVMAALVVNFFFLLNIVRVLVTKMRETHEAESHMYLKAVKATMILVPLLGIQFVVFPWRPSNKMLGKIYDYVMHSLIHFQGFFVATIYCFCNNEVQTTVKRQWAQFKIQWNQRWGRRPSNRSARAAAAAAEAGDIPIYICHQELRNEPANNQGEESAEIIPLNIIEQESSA

B1: N^α1-[(4S)-4-carboxy-4-(19-carboxynonadecanoylamino)butanoyl]-[Arg17,Pro21,Pro27,His34]-h-amylin (peptide)
peptide: KCNTATCATQRLANFLRHSSPNFGAIPSSTNVGHNTY
modifications: C20 diacid-gGlu on alpha amino group of N-terminal Lys 1; disulfide Cys2-Cys7; C-terminal amide (as human amylin)
notes: also called compound 40
B2: N^α1-[(4S)-4-carboxy-4-(19-carboxynonadecanoylamino)butanoyl]-[Arg17,Pro21,Pro27,Lys35]-h-amylin (peptide)
peptide: B1 peptide with H34S, N35K
modifications: C20 diacid-gGlu on alpha amino group of N-terminal Lys 1; disulfide Cys2-Cys7; C-terminal amide (as human amylin)
notes: also called compound 34
B3: N^ε1-[2-[2-[2-[[2-[2-[2-[[(4S)-4-carboxy-4-(19-carboxynonadecanoylamino)butanoyl]amino]ethoxy]ethoxy]acetyl]amino]ethoxy]ethoxy]acetyl]-[Arg17,Pro21,Pro27,Glu35 … (peptide)
peptide: K([AEEA-AEEA-γGlu-C20 diacid])CNTATCATQRLANFLRHSSPNFGAIPSSTNVGSETY-NH2
modifications: disulfide 2-7; N-terminus assumed
SMILES: CC[C@H](C)[C@H](NC(=O)[C@H](C)NC(=O)CNC(=O)[C@H](Cc1ccccc1)NC(=O)[C@H](CC(N)=O)NC(=O)[C@@H]1CCCN1C(=O)[C@H](CO)NC(=O)[C@H](CO)NC(=O)[C@H](Cc1c[nH]cn1)NC(=O)[C@H](CCCNC(=N)N)NC(=O)[C@H](CC(C)C)NC(=O)[C@H](Cc1ccccc1)NC(=O)[C@H](CC(N)=O)NC(=O)[C@H](C)NC(=O)[C@H](CC(C)C)NC(=O)[C@H](CCCNC(=N)N)NC(=O)[C@H](CCC(N)=O)NC(=O)[C@@H](NC(=O)[C@H](C)NC(=O)[C@@H]1CSSC[C@H](NC(=O)[C@@H](N)CCCCNC(=O)COCCOCCNC(=O)COCCOCCNC(=O)CC[C@H](NC(=O)CCCCCCCCCCCCCCCCCCC(=O)O)C(=O)O)C(=O)N[C@@H](CC(N)=O)C(=O)N[C@@H]([C@@H](C)O)C(=O)N[C@@H](C)C(=O)N[C@@H]([C@@H](C)O)C(=O)N1)[C@@H](C)O)C(=O)N1CCC[C@H]1C(=O)N[C@@H](CO)C(=O)N[C@@H](CO)C(=O)N[C@H](C(=O)N[C@@H](CC(N)=O)C(=O)N[C@H](C(=O)NCC(=O)N[C@@H](CO)C(=O)N[C@@H](CCC(=O)O)C(=O)N[C@H](C(=O)N[C@@H](Cc1ccc(O)cc1)C(N)=O)[C@@H](C)O)C(C)C)[C@@H](C)O
notes: also called compound 25
B4: N^α1-[(4S)-4-carboxy-4-(19-carboxynonadecanoylamino)butanoyl]-[Arg17,Pro21,Pro27,Glu35]-h-amylin (peptide)
peptide: B1 peptide with H34S, N35E
modifications: C20 diacid-gGlu on alpha amino group of N-terminal Lys 1; disulfide Cys2-Cys7; C-terminal amide (as human amylin)
notes: also called compound 23
B5: N^α1-[(4S)-4-carboxy-4-(19-carboxynonadecanoylamino)butanoyl]-[His14,Arg17,Pro21,Pro27,Glu35]-h-amylin (peptide)
peptide: {C20 diacid-γGlu}-KCNTATCATQRLAHFLRHSSPNFGAIPSSTNVGSETY-NH2
modifications: disulfide 2-7
SMILES: CC[C@H](C)[C@H](NC(=O)[C@H](C)NC(=O)CNC(=O)[C@H](Cc1ccccc1)NC(=O)[C@H](CC(N)=O)NC(=O)[C@@H]1CCCN1C(=O)[C@H](CO)NC(=O)[C@H](CO)NC(=O)[C@H](Cc1c[nH]cn1)NC(=O)[C@H](CCCNC(=N)N)NC(=O)[C@H](CC(C)C)NC(=O)[C@H](Cc1ccccc1)NC(=O)[C@H](Cc1c[nH]cn1)NC(=O)[C@H](C)NC(=O)[C@H](CC(C)C)NC(=O)[C@H](CCCNC(=N)N)NC(=O)[C@H](CCC(N)=O)NC(=O)[C@@H](NC(=O)[C@H](C)NC(=O)[C@@H]1CSSC[C@H](NC(=O)[C@H](CCCCN)NC(=O)CC[C@H](NC(=O)CCCCCCCCCCCCCCCCCCC(=O)O)C(=O)O)C(=O)N[C@@H](CC(N)=O)C(=O)N[C@@H]([C@@H](C)O)C(=O)N[C@@H](C)C(=O)N[C@@H]([C@@H](C)O)C(=O)N1)[C@@H](C)O)C(=O)N1CCC[C@H]1C(=O)N[C@@H](CO)C(=O)N[C@@H](CO)C(=O)N[C@H](C(=O)N[C@@H](CC(N)=O)C(=O)N[C@H](C(=O)NCC(=O)N[C@@H](CO)C(=O)N[C@@H](CCC(=O)O)C(=O)N[C@H](C(=O)N[C@@H](Cc1ccc(O)cc1)C(N)=O)[C@@H](C)O)C(C)C)[C@@H](C)O
notes: also called compound 30

target: T1, human calcitonin receptor; assay: SPA competition with 125I-calcitonin, membranes of BHK hCTR cells (Assay VII)
Procedure: Membranes were prepared in the following way; the cells were rinsed with PBS and incubated with Versene for approximately 5 min before harvesting. The cells were flushed with PBS and the cell-suspension was centrifuged for 5 min at 1000 rpm. Cells were homogenized (Ultrathurrax) in a buffer containing 20 mM Na-HEPES and 10 mM EDTA (pH 7.4) and centrifuged at 20.000 rpm for 15 min. The resulting pellet was resuspended, homogenized and centrifuged (20.000 rpm, 15 min) in a buffer containing 20 mM Na-HEPES and 0.1 mM EDTA (pH 7.4, buffer 2). The resulting pellet was resuspended in buffer 2 and protein concentration was measured (BCA protein Assay, Pierce). The homogenate was kept cold during the whole procedure. The membranes were kept at −80° C. until use. Assay was performed in a 384 well Optiplate (PerkinElmer) in a total volume of 40 ul. Membranes were mixed with SPA beads. Final concentration of membranes 35 ng/μL final and Final concentration of SPA beads was 0.05 mg/well. Test-compounds were dissolved in DMSO and further diluted in assay buffer (50 mM Hepes, pH 7.4, 1 mM CaCl2, 5 mM MgCl₂, 0.1% OA and 0.02% Tween20). […] The final mixture was incubated for 120 min with shaking at 400 rpm at 25° C. prior to centrifugation (1500 rpm, 10 min). Samples were analyzed on TopCounter™ (Packard). The […] was calculated using (one site binding competition analysis) GraphPad Prism5 as a measure of receptor affinity.

**Q.** Which IC50 does the source give for B1 here?
**A.** 17.1 nM

**Q.** How did the IC50 turn out when B2 was run?
**A.** 73.4 nM

**Q.** For B3, which IC50 is on record?
**A.** 43.4 nM

**Q.** B4 was tested. Which IC50 did it give?
**A.** 21.8 nM

**Q.** With B5 as the binder, how does the IC50 read?
**A.** 21.6 nM
